Paper PMC12519216

Molecular target: complex III (ubiquinone cytochrome C oxidoreductase) (mouse (endogenous in cerebellum)) (UniProt Q9CZ13)
Test: native gel or EMSA; blue native PAGE (4 to 12% NativePAGE) of cerebellum mitochondria solubilised in 1% digitonin, WT and Mecr285/del10 mice; transferred to PVDF and immunoblotted; in-gel activity assays on parallel gels

Substance “complex III (ubiquinone cytochrome C oxidoreductase) (from UniProt Q9CZ13 35-480)” has a stoichiometry N of 2.
